Measurements published in patent US20110183342A1.

Biological target: HLA-B1501 (purified MHC class I molecule) (human)
Assay: competition with a radiolabeled probe peptide for purified MHC class I

Binder AVINTTCNYGQ (modifications not checked) [Mtb8.4 5-15 peptide …] has an IC50 of 10 nM.
